# Patent US20180231548
# T1: Methyl Red (MR)-AAPV-NBD-UBI29-41
# T1 chain: AAPVKTGRAKRRMQYNRR
# How the values were obtained:
# [1] = molecular target: T1, Methyl Red (MR)-AAPV-NBD-UBI29-41
protein,measurement,setting,value
human neutrophil elastase (protein) IVGGRRARPHAWPFMVSLQLRGGHFCGATLIAPNFVMSAAHCVANVNVRAVRVVLGAHNLSRREPTRQVFAVQRIFENGYDPVNLLNDIVILQLNGSATINANVQVAQLPAQGRRLGNGVQCLAMGWGLLGRNRGIASVLQELNVTVVTSLCRRSNVCTLVRGRQAGVCFGDSGSPLVCNGLIHGIASFVRGGCASGLYPDAFAPVAQFVNWIDSIIQ,fluorescence of the cleaved TAMRA compound (spectrophotometer) and NBD labelling of bacteria after cleavage,TAMRA-AAPV-NBD-PMX,the fluorescence of the cleaved TAMRA compound increases in an elastase dependent manner and are inhibited with an elastase inhibitor such as sivelestat
same,bacterial labelling by NBD after cleavage of the probe; confocal images of a co-culture of bacteria and human neutrophils,[1],These images confirm the ability of the probe to be cleaved by neutrophil derived HNE and to label bacteria
